Data on two molecules can be found in patent US20180312587A1 (ADURO BIOTECH HOLDINGS EUROPE B V, published 2018).

The target in one test is T1, human SIRPβ1 (human, UniProt O00241 30-398).
T1 construct: also called hSIRPβ1
Description: CELISA, CHO-K1 transfectants. The procedure:
(§1) Reactivity was confirmed using CHO-K1 cells (ATCC CCL-61) expressing a cDNA encoding the full length open reading frame of hSIRPαV1, hSIRPαV1(P74A), hSIRPαV2, and hSIRPβ1 subcloned into the pCI-neo vector (Promega, Madison, Wis.). CHO-K1.hSIRPαV1, CHO-K1.hSIRPαV1(P74A), CHO-K1.hSIRPαV2, and CHO-K1.hSIRPβ1 cells were seeded in culture medium (DMEM-F12 (Gibco) supplemented with 5% New Born Calf Serum (BioWest) and Pen/Strep (Gibco)) in 96-well flat-bottom tissue culture plates and incubated at 37° C., 5% CO₂ and 95% humidity for 24 hours. Subsequently, culture medium was removed and cells were incubated for 1 hour at 37° C., 5% CO₂ and 95% humidity with purified hSIRPα antibodies (used at 10 μg/mL and dilutions thereof). Next, cells were washed with PBS-T and incubated for 1 hour at 37° C., 5% CO₂ and 95% humidity with goat-anti-mouse IgG-HRP (Southern Biotech). Subsequently, cells were washed three times with PBS-T and immunoreactivity against hSIRPαV1, hSIRPαV1(P74A), hSIRPαV2, and hSIRPβ1 was visualized with TMB Stabilized Chromogen (Invitrogen). Reactions were stopped with 0.5 M H₂SO₄ and absorbances were read at 450 and 610 nm.

A further test addresses T2, hSIRPαV1(P74A) (human, UniProt P78324 31-504).
T2 construct: also called P74A variant of hSIRPαV1
Description: CELISA, CHO-K1 transfectants. The procedure:
as §1

Test [1] deals with T3, hSIRPα expressed on primary human cells (human, UniProt P78324 31-504).
T3 construct: whole, on cells; also called hSIRPα on primary human CD14+ monocytes; on primary human granulocytes
T3 sequence (P78324 31-504): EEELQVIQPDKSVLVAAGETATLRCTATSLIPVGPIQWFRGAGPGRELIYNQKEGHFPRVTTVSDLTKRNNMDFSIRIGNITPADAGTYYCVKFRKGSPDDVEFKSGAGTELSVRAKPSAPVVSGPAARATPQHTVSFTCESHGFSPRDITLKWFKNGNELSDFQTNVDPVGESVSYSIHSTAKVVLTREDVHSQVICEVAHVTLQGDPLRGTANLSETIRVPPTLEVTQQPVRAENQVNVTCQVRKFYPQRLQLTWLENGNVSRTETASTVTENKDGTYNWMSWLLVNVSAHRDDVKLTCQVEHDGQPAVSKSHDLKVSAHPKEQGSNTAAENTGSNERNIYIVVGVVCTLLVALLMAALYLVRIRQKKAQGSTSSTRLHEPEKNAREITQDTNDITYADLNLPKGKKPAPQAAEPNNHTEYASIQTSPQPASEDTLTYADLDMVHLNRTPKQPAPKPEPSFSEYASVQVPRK
Briefly: flow cytometry on primary human granulocytes, FITC goat-anti-mouse Ig. The procedure:
To confirm the functionality of hSIRPα.50A in primary immune cells, granulocytes (e.g. effector cells) were isolated from healthy human donor EDTA blood. First, the EDTA blood of each donor was pooled and centrifuged at 300 g for 6 minutes at 20° C. Next, plasma was removed by aspiration, and the remaining blood cells were gently resuspended. Cells were recovered in red blood cell (RBC) lysis buffer (155 mM NH4Cl; 10 mM KHCO3) and incubated for 10 minutes on ice. Next, cells were centrifuged at 300 g for 7 minutes. Supernatants containing lysed RBCs were removed by aspiration, and the remaining blood cells were gently resuspended in RBC lysis buffer and kept on ice for 1 minute. […] The percentage of granulocytes present in the cell suspension was determined by flow cytometry on the FACSCanto II (BD Biosciences) based on high forward scatter (FSC) and side scatter (SSC). Binding of hSIRPα.50A to human granulocytes was assessed by incubating the cells for 30 minutes at 4° C. with hSIRPα.50A antibody (25 μg/mL and dilutions thereof) in PBS/1% BSA containing 10% autologous serum (PBS/1% BSA/10% serum). […] After this labeling procedure, cells were washed two times, resuspended in PBS/1% BSA/10% serum and analysed by flow cytometry on the FACSCanto II (BD Biosciences). Data were processed and analysed with FlowJo V10 software (FlowJo, LLC).
(A flow cytometer gives signals particle by particle.)

The target of another test is T4, hSIRP-VγC1βC2β (human, UniProt O00241 30-398).
T4 chain: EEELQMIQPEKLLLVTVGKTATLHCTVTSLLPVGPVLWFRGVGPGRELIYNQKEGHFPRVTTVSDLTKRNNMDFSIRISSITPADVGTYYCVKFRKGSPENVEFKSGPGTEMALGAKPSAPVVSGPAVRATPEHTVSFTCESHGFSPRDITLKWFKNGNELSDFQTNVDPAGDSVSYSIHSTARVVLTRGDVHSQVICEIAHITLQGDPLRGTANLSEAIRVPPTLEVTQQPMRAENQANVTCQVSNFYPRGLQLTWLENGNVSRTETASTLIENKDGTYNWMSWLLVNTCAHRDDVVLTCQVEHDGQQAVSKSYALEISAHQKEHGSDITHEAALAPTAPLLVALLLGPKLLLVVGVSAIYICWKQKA
Briefly: CELISA, CHO-K1 transfectants, domain exchange study. From the text:
Based on the fold of SIRPα/β1/γ, the extracellular region can be subdivided into three separate domains: the Ig-like (immunoglobulin-like) V-type (IgV), Ig-like C1-type (IgC1), and Ig-like C2-type (IgC2) domain. The IgV domain is also known as the ligand-binding N-terminal domain of SIRPα and SIRPγ (which binds to CD47). The human SIRPβ1/γ mutants were designed based on the full length hSIRPβ1 sequence (SEQ ID NO: 38) and each individual Ig-like domain was substituted for the equivalent domain of human SIRPγ (SEQ ID NO: 40). […] Binding of hSIRPα.40A to the exchange mutants was tested using CELISA. To this end, CHO-K1 cells were transiently transfected, using Lipofectamine 2000, with the pCI-neo vectors encoding hSIRPαV1, hSIRPαV2, hSIRPβ1, hSIRP-VγC1βC2β, hSIRP-VβC1γC2β, and hSIRP-VβC1βC2γ, respectively. The transfected cells were cultured at 37° C., 5% CO₂ and 95% humidity in medium (DMEM-F12 (Gibco) with 5% New Born Calf serum (Biowest) and Pen/Strep (Gibco)) until confluent. Subsequently, cells were trypsinized and seeded in 96-well flat-bottom tissue culture plates and cultured at 37° C., 5% CO₂ and 95% humidity in culture medium until confluent. Then, culture medium was removed and cells were incubated for 1 hour at 37° C., 5% CO₂ and 95% humidity with hSIRPα.40A, hSIRPα.50A, and anti-hSIRPα clone SE5A5 antibodies. Next, cells were washed with PBS-T and incubated for 1 hour at 37° C., 5% CO₂ and 95% humidity with goat-anti-mouse IgG-HRP conjugate (Southern Biotech). After that, cells were washed three times with PBS-T and anti-hSIRPα immunoreactivity was visualized with TMB Stabilized Chromogen (Invitrogen). Reactions were stopped with 0.5 M H₂SO₄ and absorbances were read at 450 and 610 nm.

T1 sequence (O00241 30-398 limits assumed): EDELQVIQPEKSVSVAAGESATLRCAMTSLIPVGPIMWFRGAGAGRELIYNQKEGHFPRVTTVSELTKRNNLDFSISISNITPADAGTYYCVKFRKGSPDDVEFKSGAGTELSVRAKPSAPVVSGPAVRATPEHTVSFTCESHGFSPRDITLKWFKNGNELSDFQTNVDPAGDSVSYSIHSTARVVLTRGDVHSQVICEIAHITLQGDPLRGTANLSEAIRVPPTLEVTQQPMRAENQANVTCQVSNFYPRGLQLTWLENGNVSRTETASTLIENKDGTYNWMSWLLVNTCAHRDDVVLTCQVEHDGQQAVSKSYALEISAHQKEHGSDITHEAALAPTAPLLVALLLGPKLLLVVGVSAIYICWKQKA

B1: KWAR23 (antibody, V domains shown)
VH: EVQLQQSGAELVKPGASVKLSCTASGFNIKDYYIHWVQQRTEQGLEWIGRIDPEDGETKYAPKFQDKATITADTSSNTAYLHLSSLTSEDTAVYYCARWGAYWGQGTLVTVSS
VL: QIVLTQSPAIMSASPGEKVTLTCSASSSVSSSYLYWYQQKPGSSPKLWIYSTSNLASGVPARFSGSGSGTSYSLTISSMEAEDAASYFCHQWSSYPRTFGAGTKLELK
A word on the EC50: it is the concentration at which the effect is half-maximal. With B1, the values for the EC50 with human SIRPβ1 and with hSIRPαV1(P74A) were 0.033 nM and 0.049 nM, respectively.

B2: hSIRPα.50A (antibody, V domains shown)
VH: QVQLQQSGPELVKPGASVRISCKASGFTFTNYYIHWVKQRPGQGLEWIGWIYPGNVNTKYNEKFKAKATLTADKSSTTAYMQLSSLASEDSAVYFCARPTIIATDFDVWGAGTTVTVSS
VL: DIVMTQSHKFMSTSVGDRVNITCKASQGVGTAVGWYQQKPGQSPRLLIYWASTRHTGVPDRFTGSGSGTDFSLAISNVQSEDLADYFCQQYSTYPFTFGGGTNLEIK
notes: light chain constant domain not tied; also called mouse hSIRPα.50A; hSIRPα.50A.mIgG1
The EC50 (read off the curve) is the concentration at which the effect is half-maximal. In the case of B2, in test [1], the concentration giving a half-maximal response (EC50 (read off the curve)) is around 3 nM. The molecule also had an EC50 in the test with hSIRP-VγC1βC2β of 2.52 nM.
